In patent US20140256614:

Target: T1, MK2-activating peptide (transduction domain YARAAARQARA coupled to a Kaposin-derived region)
T1 chain: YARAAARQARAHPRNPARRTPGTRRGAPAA

B1: MK2 (endogenous, in mouse embryonic fibroblasts, MEF) (protein)
chain: MLSGSPGQTPPAPFPSPPPPAPAQPPPPFPQFHVKSGLQIRKNAITDDYKVTSQVLGLGINGKVLRIFDKRTQQKFALKMLQDCPKARREVELHWRASQCPHIVHIVDVYENLYAGRKCLLIVMECLDGGELFSRIQDRGDQAFTEREASEIMKSIGEAIQYLHSINIAHRDVKPENLLYTSKRPNAILKLTDFGFAKETTSHNSLTTPCYTPYYVAPEVLGPEKYDKSCDMWSLGVIMYILLCGYPPFYSNHGLAISPGMKTRIRMGQYEFPNPEWSEVSEEVKMLIRNLLKTEPTQRMTITEFMNHPWIMQSTKVPQTPLHTSRVLKEDKERWEDVKEEMTSALATMRVDYEQIKIKKIEDASNPLLLKRRKKARAVEDAALAH
phosphorylated HSP27 by immunoblot, time course at 50 µM peptide, MEF: significant MK2 activation was observed by 15 minutes of treatment
